Assay results as given in paper PMC9470112 (2020).

T1: EBV LMP2 (latent membrane protein 2) peptide on HLA-A*01:01 (human)
T1 peptide: ESEERPPTPY

B1: TCR-B1 (TCR)
alpha TRAV12 TRAJ3 CDR3: CVVTGYSSASKIIF
beta TRBV6-3 TRBJ2-1 CDR3: CASSSEGQFNEQFF
B2: EBV-LMP2^ESE-specific TCR from donor A (TCR)
alpha TRAV12 TRAJ3 CDR3: CVVTGYSSASKIIF
beta TRBV6-3 TRBJ2-1 CDR3: CASSWEGQYNEQFF
B3: EBV-LMP2^ESE-specific TCR from donor E (TCR)
alpha TRAV26 TRAJ23 CDR3: CIVSGGKLIF
beta TRBV12-3/4 TRBJ2-5 CDR3: CASSSSWTSGSGETQYF
B4: TCR-C1 (TCR)
alpha TRAV30 TRAJ45 CDR3: CGTGSGGGADGLTF
beta TRBV6-3 TRBJ2-1 CDR3: CASSPEGVFNEQFF
B5: EBV-LMP2^ESE-specific TCR C^2 from donor C (TCR)
alpha TRAV30 TRAJ45 CDR3: CGTEDGRGGADGLTF
beta TRBV6-3 TRBJ2-1 CDR3: CASSYGIYEQFF

Target: T1, EBV LMP2 (latent membrane protein 2) …
Experiment: multimer staining

| Binder | binding result |
| --- | --- |
| B1 | recognises |
| B2 | recognises |
| B3 | recognises |
| B4 | recognises |
| B5 | recognises |
